One block for each binder: values may come before it.
Assays:
[1] = target: T1, cynomolgus macaque IL-10Rα extracellular domain fused to the Fc portion of human IgG1 (cynomolgus macaque); test: ELISA, coated cynomolgus IL-10Rα:hFc
T1 construct: The entry includes the signal peptide; also called cynomolgus IL-10Rα:hFc; cyIL-10Rα
From the text: Titration of anti-IL-10Rα antibodies binding to coated chimp or cynomolgus IL-10Rα:hFc. Binding was detected with anti-human kappa-HRP, anti-mouse IgG-HRP, or anti-rat IgG-HRP. Different anti-rat-IgG HRP and anti-mouse IgG antibodies were used to generate the data in panels A and B. The nature of these secondary antibodies can affect the results and lead to different maximum binding (BMAX). The BMAX from these studies are described in Table 5.
IL-10Rα Specific Antibody Detection ELISA: Antibody titers, specificity, and production by hybridomas were determined by ELISA. In brief, 96 well flat bottom Maxisorb plates were coated with 50 μl of hIL-10Rα (R&D Systems, Minneapolis, Minn.) at 1 μg/ml in carbonate buffer (pH 9.4) overnight at 4° C. or at 37° C. for 1 hour. After washing three times with PBS/0.05% Tween 20, plates were blocked with Superblock blocking buffer in TBS (Pierce) at room temperature for 30 minutes. The serum, supernatant, or purified antibody was diluted in blocking buffer, added to the wells, and the plates were incubated for 1 hour at room temperature. The plates were washed 3 times with PBS/0.05% Tween 20 and peroxidase-conjugated goat anti-human IgG (Fcγ specific), anti-rat IgG, or anti-mouse IgG detection antibodies (Jackson Immunoresearch) were added at a dilution of 1:5000. Multiple lots of anti-rat and anti-mouse IgG antibodies were used in different assays. […] Following a 1 hour incubation at room temperature, the plates were washed and the TMB (Sigma) substrate was added and incubated at room temperature for 5 to 10 minutes. The reaction was stopped with H₂SO₄ (LabChem) and the optical density was measured at 450 nm by a microplate reader. A second ELISA protocol using soluble human, chimp and cynomolgus IL-10Rα:hFc recombinant proteins as the coating antigens was also employed. In this assay, binding of specific human IgG were detected with a peroxidase labeled sheep anti-human kappa antibody (The Binding Site, Birmingham, UK).

[2] = target: T2, cynomolgus macaque IL-10Rα on PBMC (cynomolgus macaque, UniProt Q13651 22-578 (human entry)); test: flow cytometry on cynomolgus PBMC
T2 construct: Full-length entry cloned from cynomolgus T cells; endogenous on primary PBMC in the assays; also called IL-10Rα on the surface of cynomolgus lymphocytes and monocytes
T2 chain: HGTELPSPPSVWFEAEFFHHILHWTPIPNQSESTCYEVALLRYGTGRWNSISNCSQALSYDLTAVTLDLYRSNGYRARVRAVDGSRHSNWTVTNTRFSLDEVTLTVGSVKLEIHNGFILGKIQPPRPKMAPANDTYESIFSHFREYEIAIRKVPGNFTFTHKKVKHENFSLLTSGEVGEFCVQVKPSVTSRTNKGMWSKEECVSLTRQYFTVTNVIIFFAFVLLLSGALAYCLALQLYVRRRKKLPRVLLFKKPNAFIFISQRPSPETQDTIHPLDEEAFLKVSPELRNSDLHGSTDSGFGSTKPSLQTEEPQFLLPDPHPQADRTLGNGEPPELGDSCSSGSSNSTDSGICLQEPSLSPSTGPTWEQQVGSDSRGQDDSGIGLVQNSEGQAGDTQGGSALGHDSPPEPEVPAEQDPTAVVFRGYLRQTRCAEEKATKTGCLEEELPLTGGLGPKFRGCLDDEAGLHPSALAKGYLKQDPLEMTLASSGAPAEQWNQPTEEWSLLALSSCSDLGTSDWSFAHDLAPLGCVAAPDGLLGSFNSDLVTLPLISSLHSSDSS

[3] = target: T3, mouse IL-10Rα on splenocytes (mouse, UniProt Q61727 17-575); test: flow cytometry on splenocytes
T3 construct: whole, on cells
T3 sequence (looked up): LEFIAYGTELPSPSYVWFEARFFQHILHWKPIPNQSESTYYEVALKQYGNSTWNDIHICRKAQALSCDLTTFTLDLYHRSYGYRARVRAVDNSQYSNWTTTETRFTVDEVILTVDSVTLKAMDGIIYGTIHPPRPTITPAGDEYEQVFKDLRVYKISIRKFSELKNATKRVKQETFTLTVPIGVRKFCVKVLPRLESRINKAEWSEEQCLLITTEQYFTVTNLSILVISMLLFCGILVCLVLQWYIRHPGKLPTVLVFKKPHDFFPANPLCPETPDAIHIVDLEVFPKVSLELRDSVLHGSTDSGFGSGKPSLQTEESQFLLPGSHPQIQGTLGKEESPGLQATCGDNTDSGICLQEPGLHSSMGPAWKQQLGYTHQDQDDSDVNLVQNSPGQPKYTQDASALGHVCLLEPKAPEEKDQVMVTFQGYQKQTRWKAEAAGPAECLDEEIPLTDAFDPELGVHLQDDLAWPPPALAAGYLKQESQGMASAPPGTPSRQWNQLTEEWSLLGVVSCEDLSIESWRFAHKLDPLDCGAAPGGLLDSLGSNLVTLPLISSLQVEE

[4] = target: T4, Ac-YHSNGYRARVRA-NH2 (human); test: dot blot on PVDF or nitrocellulose membrane
T4 peptide: Ac-YHSNGYRARVRA-NH2
Protocol: (§1) Methods to detect antibody binding to peptides derived from the human IL-10Rα sequence: Multiple methods were employed to detect binding of anti-human IL-10Rα antibodies to peptides derived from the extracellular domain of human IL-10Rα that have been reported by Reineke, et al. (Reineke, et al., Protein Sci 7:951 (1998)) to be included in the IL-10 binding site of the receptor. The following amide synthesized peptides were tested: Ac-[…]-NH2, Ac-[…]-NH2, Ac-[…]-NH2, Ac-[…]-NH2, Ac-[…]-NH2 (SEQ ID NO. 81-85). In addition, the following biotinylated peptides were tested: Biotin-[…]-NH2, Biotin-[…]-NH2 (SEQ ID NO. 86-87). The amide peptides were synthesized by A&A Labs, LLC (San Diego, Calif.) and the biotinylated peptides were synthesized by GenScript (Piscataway, N.J.) both at >95% purity and reconstituted at 20 mg/ml in DMSO. In one assay design peptides were spotted at 5 μg/spot in PBS onto PVDF membranes or nitrocellulose membranes that had been prepared according to the manufacturer's instructions. The membranes were incubated with anti-IL-10Rα antibodies using standard Western blotting methods (e.g. Towbin, et al., Proc Natl Acad Sci 76:4350 (1979)). Native human IL-10Ra:hFc and heat denatured human IL-10Ra:hFc were also spotted at 1 μg/spot on the membranes as controls. Negative controls included an irrelevant peptide and isotype controls. […] None of the antibodies bound to the spotted denatured protein or to any of the peptides derived from the human IL-10Ra extracellular domain or the irrelevant peptide.

[5] = target: T5, Ac-SIFSHFREYE-NH2 (human); test: dot blot on PVDF or nitrocellulose membrane
T5 peptide: Ac-SIFSHFREYE-NH2
Protocol: as §1

[6] = target: T6, Biotin-SGSTLDLYHSNGYRARVRAVDG-NH2 (human, N-terminal biotin, C-terminal amide (-NH2)); test: dot blot on PVDF or nitrocellulose membrane
T6 peptide: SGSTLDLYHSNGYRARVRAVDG
Protocol: as §1

[7] = target: T7, Ac-GNFTFTHKKV-NH2 (human); test: dot blot on PVDF or nitrocellulose membrane
T7 peptide: Ac-GNFTFTHKKV-NH2
Protocol: as §1

[8] = target: T8, Biotin-SGSTYSIFSHFREYEIAIRKV-NH2 (human, N-terminal biotin, C-terminal amide (-NH2)); test: dot blot on PVDF or nitrocellulose membrane
T8 peptide: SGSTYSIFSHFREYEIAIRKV
Protocol: as §1

[9] = target: T9, Ac-TVTNTRFSVD-NH2 (human); test: dot blot on PVDF or nitrocellulose membrane
T9 peptide: Ac-TVTNTRFSVD-NH2
Protocol: as §1

[10] = target: T10, Ac-SVASRSNKGM-NH2 (human); test: dot blot on PVDF or nitrocellulose membrane
T10 peptide: Ac-SVASRSNKGM-NH2
Protocol: as §1

[11] = target: T11, human IL-10Rα on cells (human, UniProt Q13651 22-578); test: flow cytometry on RPMI-8226 cells; biotinylated human IL-10, streptavidin-FITC [B]
T11 construct: Full-length entry with signal peptide; endogenous on PBMC and RPMI-8226 cells, transfected in EL-4 and CHO-K1 cells; also called IL-10R on RPMI-8226 cells; IL-10Rα on human PBMC, lymphocytes and monocytes
T11 sequence: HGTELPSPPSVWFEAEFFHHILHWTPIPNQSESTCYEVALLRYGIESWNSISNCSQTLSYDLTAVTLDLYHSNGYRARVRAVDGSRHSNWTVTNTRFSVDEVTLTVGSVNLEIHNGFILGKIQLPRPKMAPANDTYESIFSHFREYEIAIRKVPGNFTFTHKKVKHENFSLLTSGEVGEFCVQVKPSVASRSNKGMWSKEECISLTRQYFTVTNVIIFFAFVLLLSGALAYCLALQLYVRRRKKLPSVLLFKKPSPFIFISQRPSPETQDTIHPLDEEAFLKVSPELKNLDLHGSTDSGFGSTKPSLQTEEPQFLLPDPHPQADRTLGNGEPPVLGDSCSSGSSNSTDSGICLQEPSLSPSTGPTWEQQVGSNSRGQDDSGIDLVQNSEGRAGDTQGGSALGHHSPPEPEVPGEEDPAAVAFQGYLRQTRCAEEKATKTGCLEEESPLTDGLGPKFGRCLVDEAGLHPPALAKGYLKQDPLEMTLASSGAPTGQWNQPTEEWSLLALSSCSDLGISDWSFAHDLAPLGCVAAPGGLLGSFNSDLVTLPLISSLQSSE
From the text: RPMI-8226 cells were stained with human IL-10 biotin followed by anti-human IL-10Rα antibodies, and binding of antibodies was detected with anti-human IgG-PE or anti-rat IgG-PE. A) Filled histograms represent the maximum binding of the antibodies in the absence of IL-10, the open histograms are in the presence of human IL-10; B) Maximum IL-10 binding (closed histogram) is inhibited by anti-IL-10 (open histogram.) The shaded histogram represents binding of a negative control protein. Binding of IL-10 was detected with streptavidin-FITC.
IL-10 Blocking Assay: To determine if the anti-human IL-10Rα antibodies were blocked by binding of IL-10 to the receptor on the cell surface, a flow cytometric protocol was used. In the flow cytometric assay, RPMI-8226 cells were washed and resuspended in staining buffer and then incubated with biotinylated human IL-10 or a negative control protein (R&D Systems) for 30 minutes on ice. The anti-IL-10Rα antibodies were then added to the cells for an additional 30 minutes. […] After another wash, the cells were fixed with 1% paraformaldehyde and analyzed on a FACS Calibur. The fold reduction in antibody binding was determined using the geometric mean fluorescence intensity in the following formula: Fold reduction=geometric mean fluorescence intensity in the absence of IL-10/geometric mean fluorescence intensity binding in presence of IL-10.

- BMAX [1]: 1.31 OD
- binding result [2]: binds
- binding result [3]: no binding
- binding result [4]: no binding (tested: 5 µg/spot)
- binding result [5]: no binding (tested: 5 µg/spot)
- binding result [6]: no binding (tested: 5 µg/spot)
- binding result [7]: no binding (tested: 5 µg/spot)
- binding result [8]: no binding (tested: 5 µg/spot)
- binding result [9]: no binding (tested: 5 µg/spot)
- binding result [10]: no binding (tested: 5 µg/spot)
B1: 136D29 (antibody, V domains shown)
VH: QVQLVQSGAEVKKPGASVKVSCKVSGFTLTELSMHWVRQAPGKGLEWMGGFDPDDGETIYAQKFQGRVSMTEDTSTDTAYMELSSLRSEDTAVYYCATGGYYGPVGMDVWGQGTTVTVSS
VL: DIQMTQSPSSLSASVGDRVTITCRASQGISIWLAWYQQKPEKAPKSLIYAASSLQSGVPSRFSGSGSGTDFTLTISSLQPEDFATYYCQQYNSYPLTFGGGTKVEIK
notes: Hybridoma antibody, human IgG4, kappa light chain #2 (the chain identified as correct); also called human anti-human IL-10Rα monoclonal antibody 136D29; 136D9 [sic]

- binding result [11]: binds
B2: recombinant human IL-10 (ligand, UniProt P22301 19-178, looked up)
chain: SPGQGTQSENSCTHFPGNLPNMLRDLRDAFSRVKTFFQMKDQLDNLLLKESLLEDFKGYLGCQALSEMIQFYLEEVMPQAENQDPDIKAHVNSLGENLKTLRLRLRRCHRFLPCENKSKAVEQVKNAFNKLQEKGIYKAMSEFDIFINYIEAYMTMKIRN
notes: also called human IL-10 biotin

Source: US20110144312A1 (Kyowa Kirin, published 2011)
